Values of other authors as cited in article PMC4131687.

Legend:
[1] = target: NaV1.4 (Rattus norvegicus) (UniProt P15390)
[2] = target: NaV1.2 (Rattus norvegicus) (UniProt P04775)
NaV1.2 (Rattus norvegicus), sequence (P04775 whole entry): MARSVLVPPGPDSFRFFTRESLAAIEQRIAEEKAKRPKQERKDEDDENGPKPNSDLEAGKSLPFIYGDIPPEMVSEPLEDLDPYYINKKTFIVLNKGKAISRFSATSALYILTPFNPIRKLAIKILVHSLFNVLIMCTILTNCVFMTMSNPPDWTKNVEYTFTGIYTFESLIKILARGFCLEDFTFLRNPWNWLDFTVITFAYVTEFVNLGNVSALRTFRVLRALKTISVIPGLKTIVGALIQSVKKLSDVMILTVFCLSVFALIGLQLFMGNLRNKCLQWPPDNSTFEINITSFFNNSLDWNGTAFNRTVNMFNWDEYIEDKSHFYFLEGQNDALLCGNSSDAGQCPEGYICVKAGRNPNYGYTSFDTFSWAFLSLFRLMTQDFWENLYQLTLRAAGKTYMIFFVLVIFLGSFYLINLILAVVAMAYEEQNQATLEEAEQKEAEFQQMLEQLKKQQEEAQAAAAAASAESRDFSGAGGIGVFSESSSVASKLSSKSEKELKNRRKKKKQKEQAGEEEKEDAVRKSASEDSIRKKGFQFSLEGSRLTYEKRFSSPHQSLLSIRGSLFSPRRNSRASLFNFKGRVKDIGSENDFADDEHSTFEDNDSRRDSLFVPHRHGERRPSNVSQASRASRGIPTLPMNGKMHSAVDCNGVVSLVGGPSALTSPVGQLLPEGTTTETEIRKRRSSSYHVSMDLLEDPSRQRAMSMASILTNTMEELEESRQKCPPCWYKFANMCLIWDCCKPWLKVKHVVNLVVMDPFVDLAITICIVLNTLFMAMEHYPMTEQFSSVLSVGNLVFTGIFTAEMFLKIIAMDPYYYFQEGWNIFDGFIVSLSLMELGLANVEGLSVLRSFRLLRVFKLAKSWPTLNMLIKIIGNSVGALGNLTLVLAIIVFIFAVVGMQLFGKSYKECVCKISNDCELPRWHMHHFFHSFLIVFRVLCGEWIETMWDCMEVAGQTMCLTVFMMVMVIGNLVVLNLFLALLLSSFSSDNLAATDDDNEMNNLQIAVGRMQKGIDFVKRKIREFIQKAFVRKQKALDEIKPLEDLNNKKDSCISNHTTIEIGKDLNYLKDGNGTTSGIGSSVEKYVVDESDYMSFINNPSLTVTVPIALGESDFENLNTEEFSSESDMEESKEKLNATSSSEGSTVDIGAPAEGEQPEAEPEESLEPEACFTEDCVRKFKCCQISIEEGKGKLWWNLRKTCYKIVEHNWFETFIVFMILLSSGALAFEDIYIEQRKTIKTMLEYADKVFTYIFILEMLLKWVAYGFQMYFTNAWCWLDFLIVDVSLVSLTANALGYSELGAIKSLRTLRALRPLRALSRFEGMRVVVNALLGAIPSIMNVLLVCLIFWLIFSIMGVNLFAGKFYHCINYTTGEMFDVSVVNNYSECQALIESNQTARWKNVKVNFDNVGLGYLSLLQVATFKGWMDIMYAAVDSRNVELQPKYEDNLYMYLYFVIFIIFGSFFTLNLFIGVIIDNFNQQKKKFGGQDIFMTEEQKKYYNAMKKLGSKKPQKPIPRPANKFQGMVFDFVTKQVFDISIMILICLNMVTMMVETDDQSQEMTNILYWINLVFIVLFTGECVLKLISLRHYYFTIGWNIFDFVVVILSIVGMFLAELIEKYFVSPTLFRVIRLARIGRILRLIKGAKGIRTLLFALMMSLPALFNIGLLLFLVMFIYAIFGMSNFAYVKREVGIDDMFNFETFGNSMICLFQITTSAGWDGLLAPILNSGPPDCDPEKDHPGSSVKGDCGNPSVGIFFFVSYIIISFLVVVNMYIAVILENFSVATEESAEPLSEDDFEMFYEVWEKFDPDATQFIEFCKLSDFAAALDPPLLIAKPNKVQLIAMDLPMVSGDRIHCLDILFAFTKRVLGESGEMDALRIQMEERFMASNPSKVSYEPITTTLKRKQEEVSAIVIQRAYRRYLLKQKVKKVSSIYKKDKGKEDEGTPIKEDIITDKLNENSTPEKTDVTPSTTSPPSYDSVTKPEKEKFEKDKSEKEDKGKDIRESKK

NaV1.4 (Rattus norvegicus), sequence (P15390 whole entry): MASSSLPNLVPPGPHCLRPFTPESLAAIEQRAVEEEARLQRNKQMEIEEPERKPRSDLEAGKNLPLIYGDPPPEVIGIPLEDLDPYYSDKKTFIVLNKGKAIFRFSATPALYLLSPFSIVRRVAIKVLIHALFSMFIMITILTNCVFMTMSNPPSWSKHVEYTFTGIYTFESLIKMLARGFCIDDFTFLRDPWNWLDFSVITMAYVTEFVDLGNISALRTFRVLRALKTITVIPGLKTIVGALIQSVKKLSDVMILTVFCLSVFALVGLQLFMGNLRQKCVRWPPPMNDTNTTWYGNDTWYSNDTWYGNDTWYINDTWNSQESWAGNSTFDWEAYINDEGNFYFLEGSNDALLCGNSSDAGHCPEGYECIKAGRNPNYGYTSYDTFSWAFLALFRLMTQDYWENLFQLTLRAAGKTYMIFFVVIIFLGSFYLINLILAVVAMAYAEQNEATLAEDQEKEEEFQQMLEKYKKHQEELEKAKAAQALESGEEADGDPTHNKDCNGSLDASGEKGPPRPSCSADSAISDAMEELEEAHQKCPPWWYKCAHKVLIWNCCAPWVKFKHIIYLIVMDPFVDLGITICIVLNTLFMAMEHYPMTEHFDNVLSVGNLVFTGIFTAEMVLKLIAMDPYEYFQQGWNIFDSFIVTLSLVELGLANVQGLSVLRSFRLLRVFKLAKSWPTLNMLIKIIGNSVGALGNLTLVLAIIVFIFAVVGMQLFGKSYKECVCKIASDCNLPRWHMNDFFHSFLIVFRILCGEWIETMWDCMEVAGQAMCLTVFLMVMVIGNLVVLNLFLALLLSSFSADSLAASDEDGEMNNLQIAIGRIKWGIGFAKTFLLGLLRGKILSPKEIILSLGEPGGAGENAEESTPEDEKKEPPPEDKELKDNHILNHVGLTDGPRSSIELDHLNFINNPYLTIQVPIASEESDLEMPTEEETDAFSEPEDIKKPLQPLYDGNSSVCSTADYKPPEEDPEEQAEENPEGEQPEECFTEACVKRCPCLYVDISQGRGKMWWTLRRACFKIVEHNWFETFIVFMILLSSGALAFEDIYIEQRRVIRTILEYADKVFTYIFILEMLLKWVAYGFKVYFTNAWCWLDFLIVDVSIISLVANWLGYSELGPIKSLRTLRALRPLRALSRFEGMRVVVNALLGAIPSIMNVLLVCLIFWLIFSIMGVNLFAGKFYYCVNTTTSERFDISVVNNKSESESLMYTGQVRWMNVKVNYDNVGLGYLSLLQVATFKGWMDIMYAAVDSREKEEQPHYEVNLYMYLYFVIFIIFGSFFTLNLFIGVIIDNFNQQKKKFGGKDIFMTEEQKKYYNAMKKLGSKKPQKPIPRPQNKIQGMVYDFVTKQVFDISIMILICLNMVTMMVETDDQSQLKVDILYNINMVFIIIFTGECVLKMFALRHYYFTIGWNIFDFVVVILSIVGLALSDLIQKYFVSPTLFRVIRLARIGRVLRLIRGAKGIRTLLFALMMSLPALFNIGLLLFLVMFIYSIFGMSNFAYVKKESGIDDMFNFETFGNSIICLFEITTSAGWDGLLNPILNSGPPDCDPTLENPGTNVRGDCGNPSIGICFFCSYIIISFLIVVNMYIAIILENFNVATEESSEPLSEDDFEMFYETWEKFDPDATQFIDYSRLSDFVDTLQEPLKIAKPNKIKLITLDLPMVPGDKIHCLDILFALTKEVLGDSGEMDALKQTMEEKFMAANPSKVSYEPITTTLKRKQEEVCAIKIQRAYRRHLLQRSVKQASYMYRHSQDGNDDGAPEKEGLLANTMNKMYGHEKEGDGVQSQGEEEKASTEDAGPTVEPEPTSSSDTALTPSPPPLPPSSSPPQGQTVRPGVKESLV

Substance	Kd [1] [nM]	Kd [2] [nM]
mu-conotoxin KIIIA (from UniProt P0C195)	50	
μ-conotoxin KIIIA-P1 (from UniProt P0C195)		5
